B1: C19orf51 (parent)
chain: FAPQTGARPSETFARFCKSQESAL

Variants of: B1
Assay: protein stability index of a GFP-peptide fusion (GPS, HEK-293T) (PSI 1-6); higher = more stable
Conditions: c terminus: a fixed tail appended
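Further: lentivirally expressed fusions sorted by FACS into six bins by GFP to DsRed ratio, PSI derived from sequencing read proportions per bin multiplied by bin number.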

Protein stability index of substitutions, site by site:
Q20: L 1.65 | K 1.99 | D 2.51 | E 2.48 | A 2.13 | V 1.73 | R 4.59 | G 1.84 | C 3
S19: D 2.2 | A 2.85 | E 1.1 | H 4.27 | N 1.31 | P 1.77 | T 1.66 | I 2.35
S22: G 3.57 | R 1.51 | I 3.24 | T 1.88 | W 1 | P 3.4 | H 1.98 | D 2.04 | K 1.33
S10: T 2.25 | R 2.34 | C 2.34 | E 1.43 | K 2.62 | Q 1.96 | L 1.58 | F 2.11 | A 2.32
F13: N 2.49 | Y 1.49 | I 1.7 | Q 2.12
L24: D 1.88 | T 2.27 | E 3.37 | C 3.32 | R 4.53 | H 1.83 | P 1.23 | G 2.81
K18: H 2.19 | G 2.56 | Q 1.81 | D 1.1 | S 2.39 | C 2.44
E11: S 3.19 | R 2.15 | T 1.96 | I 1.72 | C 2.86 | A 1.55 | F 3.67
T5: E 2.42 | A 2.07
A7: F 2.41 | I 1.79 | C 2.92 | T 2.69 | H 3.46 | Q 1.31 | P 2.07 | E 1.77
F1: S 3.79 | I 2.65 | Q 3.77 | W 2.58 | M 3.59 | E 4.14 | V 3.3
R15: G 2.37 | H 1.69 | N 3.83 | T 2.14 | Q 1.16 | L 2.84 | S 1.08
T12: V 2.77 | M 2.29 | N 2.66 | L 2.87 | G 1.46 | D 1.99 | E 1.4 | Q 1.35
A14: D 1.69 | F 1.33 | T 2.09 | E 1.77 | I 3.27 | L 2.12 | S 1.89 | V 2.17 | N 1.44
P3: T 1.98 | W 2.66 | E 2.64 | K 2.51 | Q 2.72
C17: I 2.98 | M 3.12 | W 3 | Q 1.35 | H 1.2 | Y 2.92
E21: G 3 | P 1.88 | M 2.35 | N 1.79 | C 1.97 | I 1.97 | Q 2.79 | H 3.63 | Y 2.22
R8: A 2.93 | T 1.89 | W 2.52 | G 1.94 | P 2.83 | D 2.13 | K 2.84 | L 3.45 | I 1.71
P9: E 1.18 | L 1.06 | I 2.25 | K 2.47 | R 2.62 | Y 3.62 | D 1.23 | Q 2.77 | G 2.57
G6: M 2.32 | E 1.67 | W 2.83 | L 2.07 | I 2.25 | Y 1.86 | F 2.86 | A 2.12 | P 1.95
A23: T 2.07 | N 3.57 | W 2.29 | M 2.11 | Q 1.82 | G 2.32
A2: H 1 | K 3.17 | D 3.07 | G 2.95
F16: L 3.42 | N 1.93 | I 1.89
Q4: P 1.28 | C 2.85 | T 2.06 | I 2.27 | N 1.69 | E 1.84

From the supplement of paper PMC10567573
